The results in this text go back to US20250171536A1.

In experiment [1] the target is Human CD117 (c-kit), cell-surface expressed (human) (UniProt P10721). Put plainly: cell-based or functional assay.
The target of experiment [2] is Cyno CD117, soluble (cynoCD117 1-520) (cynomolgus monkey). Put plainly: SPR Biacore 4000, captured antibody, soluble CD117 analyte, 1:1 fit. On the technique in general: Surface plasmon resonance follows binding to a sensor surface in real time, without labels.
The target in experiment [3] is Full length human CD117, soluble (HuCD117 1-524) (human) (UniProt P10721). Described as above.
Chain of Full length human CD117, soluble (HuCD117 1-524) (human) (P10721 26-524): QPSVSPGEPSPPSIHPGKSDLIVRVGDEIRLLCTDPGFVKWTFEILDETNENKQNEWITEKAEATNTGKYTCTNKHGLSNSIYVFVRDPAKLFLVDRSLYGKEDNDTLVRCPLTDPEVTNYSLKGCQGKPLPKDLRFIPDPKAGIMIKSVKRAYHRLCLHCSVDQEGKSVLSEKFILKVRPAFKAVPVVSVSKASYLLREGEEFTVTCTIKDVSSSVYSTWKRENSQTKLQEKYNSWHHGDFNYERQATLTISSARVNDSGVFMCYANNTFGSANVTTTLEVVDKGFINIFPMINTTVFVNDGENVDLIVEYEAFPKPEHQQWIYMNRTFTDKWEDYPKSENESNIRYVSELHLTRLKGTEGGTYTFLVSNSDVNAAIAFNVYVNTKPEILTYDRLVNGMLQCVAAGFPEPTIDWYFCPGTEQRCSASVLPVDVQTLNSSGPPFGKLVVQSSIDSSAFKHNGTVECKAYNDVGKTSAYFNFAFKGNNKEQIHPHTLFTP
In experiment [4] the target is N-terminal domain of human CD117, soluble (HuCD117 1-308) (human) (UniProt P10721). The experiment is described as above.
Chain of N-terminal domain of human CD117, soluble (HuCD117 1-308) (human) (P10721 26-308): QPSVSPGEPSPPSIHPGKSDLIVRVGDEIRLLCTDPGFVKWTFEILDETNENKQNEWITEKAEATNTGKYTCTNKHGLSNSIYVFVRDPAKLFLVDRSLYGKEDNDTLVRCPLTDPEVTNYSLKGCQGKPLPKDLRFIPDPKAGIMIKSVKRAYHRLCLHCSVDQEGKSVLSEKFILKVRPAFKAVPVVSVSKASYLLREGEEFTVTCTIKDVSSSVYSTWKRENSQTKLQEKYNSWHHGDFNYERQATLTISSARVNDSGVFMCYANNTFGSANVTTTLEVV

The Kd is the constant that tells how readily two partners part at equilibrium.

Chain of Cyno CD117, soluble (cynoCD117 1-520) (cynomolgus monkey) (P10721 other isoform, or with tags, fused parts or gaps): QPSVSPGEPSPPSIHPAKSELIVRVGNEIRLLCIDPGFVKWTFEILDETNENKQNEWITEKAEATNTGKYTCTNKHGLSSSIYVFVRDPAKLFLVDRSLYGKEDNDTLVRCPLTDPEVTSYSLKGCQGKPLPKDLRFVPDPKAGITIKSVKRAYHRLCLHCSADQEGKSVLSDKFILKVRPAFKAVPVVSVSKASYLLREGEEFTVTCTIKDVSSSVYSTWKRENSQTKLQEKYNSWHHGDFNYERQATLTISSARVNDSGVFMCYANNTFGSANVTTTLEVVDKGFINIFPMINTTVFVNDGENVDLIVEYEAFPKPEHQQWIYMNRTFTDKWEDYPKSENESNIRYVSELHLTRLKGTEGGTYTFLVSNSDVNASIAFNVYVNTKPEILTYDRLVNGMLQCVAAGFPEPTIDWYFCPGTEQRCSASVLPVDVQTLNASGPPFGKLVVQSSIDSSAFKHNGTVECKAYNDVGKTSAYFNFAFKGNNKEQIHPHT
Chain of Human CD117 (c-kit), cell-surface expressed (human) (P10721 26-976 limits assumed): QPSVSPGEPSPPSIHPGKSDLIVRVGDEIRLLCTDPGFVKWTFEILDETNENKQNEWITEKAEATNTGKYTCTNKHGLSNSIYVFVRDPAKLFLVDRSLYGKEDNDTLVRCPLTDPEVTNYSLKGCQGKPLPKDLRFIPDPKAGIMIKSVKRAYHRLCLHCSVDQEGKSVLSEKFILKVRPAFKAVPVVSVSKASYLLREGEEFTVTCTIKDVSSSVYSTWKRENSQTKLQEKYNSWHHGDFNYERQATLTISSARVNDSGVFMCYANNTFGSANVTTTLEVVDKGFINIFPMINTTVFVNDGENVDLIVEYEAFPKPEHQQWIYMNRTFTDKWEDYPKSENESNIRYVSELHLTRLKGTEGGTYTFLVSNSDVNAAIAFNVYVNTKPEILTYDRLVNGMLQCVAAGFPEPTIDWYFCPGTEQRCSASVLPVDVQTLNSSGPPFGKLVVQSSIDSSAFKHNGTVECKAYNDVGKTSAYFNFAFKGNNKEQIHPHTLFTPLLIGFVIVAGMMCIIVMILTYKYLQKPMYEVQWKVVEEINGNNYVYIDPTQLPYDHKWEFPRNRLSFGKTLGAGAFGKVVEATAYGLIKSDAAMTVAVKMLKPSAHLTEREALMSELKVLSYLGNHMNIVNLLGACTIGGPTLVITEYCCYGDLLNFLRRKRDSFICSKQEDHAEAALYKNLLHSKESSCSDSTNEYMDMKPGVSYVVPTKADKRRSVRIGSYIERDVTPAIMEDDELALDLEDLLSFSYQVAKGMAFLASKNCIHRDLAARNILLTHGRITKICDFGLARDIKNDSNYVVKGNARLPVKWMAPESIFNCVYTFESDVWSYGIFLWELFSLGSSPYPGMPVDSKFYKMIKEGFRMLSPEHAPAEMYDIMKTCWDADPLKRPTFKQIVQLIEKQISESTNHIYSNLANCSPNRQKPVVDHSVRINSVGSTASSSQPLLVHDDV

B1: huAb249 IgA2 (antibody, from another filing, V domains shown)
VH: EVQLVQSGAEVKKPGESLKISCKGSGYRFTTSWIGWVRQMPGKGLEWMGIIYPGDSDTRYSPSFQGQVTISADKSISTAYLQWSSLKASDTAMYYCARHGLGYNGYEGAFDIWGQGTLVTVSS
VL: DIQMTQSPSSLSASVGDRVTITCRASQGIGSALAWYQQKPGKAPKLLIYDASNLETGVPSRFSGSGSGTDFTLTISSLQPEDFATYYCQQLNGYPLTFGQGTRLEIK
Molecule B1 returned an EC50 of trogocytosis (ADCT; DILC18 membrane uptake by neutrophils from CD117-transfected 293 cells) in experiment [1] of 480 pM. In experiment [1], the Normalised uptake (B max) in %, ADCT came out at 70.6%. Also, the equilibrium dissociation constant (Kd) in experiment [2] was determined as 100 pM; in experiment [3] it was 300 pM; in experiment [4], 80 pM.

B2: huAb249 IgG4 (antibody, from another filing, V domains shown)
VH: EVQLVQSGAEVKKPGESLKISCKGSGYRFTTSWIGWVRQMPGKGLEWMGIIYPGDSDTRYSPSFQGQVTISADKSISTAYLQWSSLKASDTAMYYCARHGLGYNGYEGAFDIWGQGTLVTVSS
VL: DIQMTQSPSSLSASVGDRVTITCRASQGIGSALAWYQQKPGKAPKLLIYDASNLETGVPSRFSGSGSGTDFTLTISSLQPEDFATYYCQQLNGYPLTFGQGTRLEIK
Take B2: the Kd in experiment [2] amounted to 300 pM; in experiment [3] it was 300 pM; in experiment [4] it was 140 pM.
